Measurements: the RNAGym collection of RNA variant scans (doi:10.7554/elife.90254)

B1: OR4K15 (parent)
chain: GUUAACGGUCAUAGGCCAUGGAAACUAGGAGCACCAUUUCGCUGCCAGUGAAGAAAUGAACAAAGAAAAUCUGGGCCAGGCAGGCAUCAAAAGAAAUAGUCUUGCGCUCAACCAGAAAGUCUGUAAUCAUUUUAAGGGUA

Variants of: B1
Test: self-cleavage, relative activity (ratio to wild type); higher = more cleavage; in vitro, sequencing; the parent is a self-cleaving ribozyme

Variant | self-cleavage
A52G A92U | 1.52
A64G U120C | 1.13
U38C A89C | 1.6
C17G A54G | 0.86
A13G A92G | 1.22
G73A A117G | 0.15
A68G A95G | 1.98
U57G A68G | 1.53
A47G A92G | 1.02
U2C G21A | 0.98
C6U G44A | 1.34
A51G G84A | 1.78
U12C A51U | 1.38
A62C U122C | 1.33
A13U A68C | 1.86
A52G A59G | 1.13
A116G U131G | 0.3
U122C U131A | 1.25
A66G A114U | 0.08
A89G A118C | 0.01
G41A A60G | 1.63
A117C G136A | 0.78
U120A A126G | 1.64
A47U U70C | 0.13

Variant | self-cleavage
U49G U102C | 1.95
A54G A129C | 0.76
A59U U108A | 0.02
U39C C81G | 0.16
A47G A116C | 0.03
C77U U102A | 1.57
C6U A13G | 1.29
A22G A59C | 1.17
A18G A69U | 1.94
A60G A110C | 0.4
A5G U132C | 0.89
U19C A67G | 1.04
A27G A78G | 0.3
A69U A129U | 1.23
G50U | 1.11
U19C G75A | 0.23
G74C A140G | 0.23
U9A A98G | 0.34
A64G U139C | 1
G79A A110U | 0.24
U108C U133C | 0.02
U38G U108C | 0.03
A96U U132C | 1.95
U87C U100C | 2.72

Variant | self-cleavage
G8A U120C | 1.57
A63G U122A | 1.47
G7A A59G | 1.46
G41A A126G | 1.48
A82G C128U | 0.33
A118G U122A | 0.79
A89U A95G | 2.26
U43C A47G | 0.98
A13G A94U | 1.4
A30G U130G | 1.09
A11G A82U | 0.2
A33U A98G | 1.53
A27G A95U | 1.2
U3C A91G | 0.84
A135U G137U | 1.68
A30U A33G | 0.69
A30G U139C | 1.03
U3A A64C | 1.33
C76A A90G | 0.14
A52G C71G | 0.39
G7A A89G | 0.61
U37A A96U | 1.83
A118U U122A | 1.08
C16G | 0.85

Variant | self-cleavage
U57A U108C | 0.02
A55G G83A | 0.71
A18G U120A | 2.34
A68G A135G | 1.23
A52C A54G | 1.34
U43C | 1.29
C101A A117G | 0.13
A24C A96G | 1.72
G7A U72C | 0.27
U130C G136U | 1.19
A56U C128A | 1.6
G99A | 0.56
U9C G75A | 0.08
A89U A135G | 1.53
C35A U43A | 2.06
U49C A140G | 2.12
A30G U39C | 1.05
A22U A54G | 1.46
A90U A129U | 1.29
A90G G123A | 0.48
A95G A140G | 1.73
U9C G136A | 2.13
A110U A114U | 0.04
A30G C71U | 0.62

Variant | self-cleavage
G48A A59U | 0.86
G7A C40U | 1.81
C109A A140G | 0.47
A86U A91U | 1.77
A22C A63U | 1.85
A47C A92U | 0.74
A95G A114G | 1.17
U39A A66U | 1.74
A51G A91U | 1.61
U97A U127C | 1.36
U57C A118G | 0.43
U12A A51G | 0.95
G8C | 1.16
A52C A60G | 1
A59C A140U | 1.46
A60G U124A | 0.75
C85A | 1.18
A36C G41U | 1.47
A56G A126G | 0.36
A23U G93A | 1.85
A66C A78G | 0.32
U39C U43A | 1.92
A63G A68G | 1.41
A69G A91G | 1.21

Variant | self-cleavage
U39C A114U | 0.1
U38C G137A | 0.9
A82G G106C | 0.01
A59G C107U | 0.01
A51G U97C | 1.75
A55C U57A | 1.84
G7A U70A | 1.94
U3C U103C | 1.12
U39A U100A | 0.55
U87C A117C | 0
U3C A62U | 1.22
A36U A82U | 0.31
A86C A95G | 1.34
G84C U100C | 0.27
A51U U102C | 1.99
U38C G44A | 1.16
U12C U87A | 0.96
C71U U72A | 0.19
A11U A116G | 1
U49C A51C | 0.34
U37G A68G | 1.5
U19C A52U | 0.93
U70C U72C | 0.31
A24G A90U | 1.65

Variant | self-cleavage
C34A A52G | 1.28
A5U A23U | 1.56
A67G A114U | 0.03
A23U A60G | 1.24
U87C A96G | 1.81
G31A A117G | 1.42
U12A A67G | 1.56
A62U G75A | 0.06
A33U A96G | 0.16
U2A A63U | 1.62
C6A A89C | 1.1
A95U A117U | 0.55
A18U A116U | 0.15
A67G G138A | 0.97
U108G U133C | 0.02
A23G U120A | 0.47
A36G | 1.39
A27G U127C | 0.56
U70C U131C | 0.65
U70A U72A | 0.24
G28C A64G | 0.77
A78G U103C | 0.11
G74A A117G | 0.2
